Laboratory results from paper PMC9287719.
Like-named read-outs stand apart in the source and are kept apart here. One block for each substance: values may come before it.

What was measured:
[1] = target: Recombinant FcγRIIa (H131) with C-terminus Biotin (human) (UniProt P12318); assay: BLI; Octet Red; biotinylated FcγR-AviTag loaded on Streptavidin biosensors (~0.5–1.0 nm); antibody in solution, 75 nM-1.17 nM for FcγRI, 5000 to 78.125 nM for the other receptors; PBST (PBS, 0.02% Tween20) pH 7.2; 60 s association, 60 s dissociation; steady state, one-site fit
Recombinant FcγRIIa (H131) with C-terminus Biotin (human), sequence (P12318 34-217): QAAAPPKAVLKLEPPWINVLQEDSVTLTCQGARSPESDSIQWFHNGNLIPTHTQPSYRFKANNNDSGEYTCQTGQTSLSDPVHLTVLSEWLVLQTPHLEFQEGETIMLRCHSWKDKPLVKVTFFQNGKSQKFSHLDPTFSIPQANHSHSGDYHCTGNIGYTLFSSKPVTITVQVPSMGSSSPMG

[2] = target: Recombinant FcγRI with C-terminus Biotin (human) (UniProt P12314); assay: as above
Recombinant FcγRI with C-terminus Biotin (human), sequence (P12314 16-292): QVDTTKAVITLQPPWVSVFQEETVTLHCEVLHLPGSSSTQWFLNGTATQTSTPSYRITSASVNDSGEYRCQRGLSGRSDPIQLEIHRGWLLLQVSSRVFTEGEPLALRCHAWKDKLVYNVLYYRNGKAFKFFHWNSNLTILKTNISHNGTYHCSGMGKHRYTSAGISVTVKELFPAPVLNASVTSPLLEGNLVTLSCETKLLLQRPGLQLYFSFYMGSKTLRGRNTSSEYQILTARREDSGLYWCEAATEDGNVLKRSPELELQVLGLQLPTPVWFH

[3] = target: Recombinant FcγRIIIa (F158) with C-terminus Biotin (human) (UniProt P08637); assay: as above
Recombinant FcγRIIIa (F158) with C-terminus Biotin (human), sequence (P08637 17-208): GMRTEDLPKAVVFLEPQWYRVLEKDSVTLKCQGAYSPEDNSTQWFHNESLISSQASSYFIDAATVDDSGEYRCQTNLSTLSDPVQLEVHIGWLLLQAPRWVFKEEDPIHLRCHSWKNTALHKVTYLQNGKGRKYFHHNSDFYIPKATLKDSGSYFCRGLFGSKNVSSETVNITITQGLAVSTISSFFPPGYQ

[4] = target: Recombinant FcγRIIa (R131) with C-terminus Biotin (human); assay: as above
[5] = target: Recombinant FcγRIIIa (V158) with C-terminus Biotin (human); assay: as above
[6] = target: Recombinant FcγRIIIa (V158) with C-terminus Biotin (human)
Target sequence in this assay (P08637 17-208 F176V): as the sequence (P08637 17-208) above, with F160V counted along it

[7] = target: Recombinant FcγRIIb with C-terminus Biotin (human) (UniProt P31994); assay: other; qualitative only
Recombinant FcγRIIb with C-terminus Biotin (human), sequence (P31994 43-217): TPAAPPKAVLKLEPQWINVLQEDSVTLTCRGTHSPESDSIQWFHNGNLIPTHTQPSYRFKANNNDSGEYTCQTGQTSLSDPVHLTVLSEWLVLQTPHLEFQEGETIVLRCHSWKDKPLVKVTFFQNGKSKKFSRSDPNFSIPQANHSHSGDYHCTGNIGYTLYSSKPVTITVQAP

[8] = target: Recombinant FcγRIIa (R131) with C-terminus Biotin (human) (UniProt P12318)
Recombinant FcγRIIa (R131) with C-terminus Biotin (human) (UniProt P12318), sequence (P12318 34-217 H167R): as the sequence (P12318 34-217) above, with H134R counted along it

[9] = target: Recombinant FcγRIIa (H131) with C-terminus Biotin (human) (UniProt P12318)
[10] = target: Recombinant FcγRIIIa (F158) with C-terminus Biotin (human) (UniProt P08637)
[11] = target: Recombinant FcγRIIIa (F158) with C-terminus Biotin (human) (UniProt P08637); remark: listed apart in the source
[12] = target: Recombinant FcγRIIa (H131) with C-terminus Biotin (human) (UniProt P12318); remark: listed apart in the source
[13] = target: Recombinant FcγRIIb with C-terminus Biotin (human) (UniProt P31994)
[14] = target: Recombinant FcγRIIa (R131) with C-terminus Biotin (human) (UniProt P12318); remark: listed apart in the source
[15] = target: Recombinant FcγRIIIa (V158) with C-terminus Biotin (human); remark: listed apart in the source
Target sequence in this assay (P08637 17-208 F176V): as the sequence (P08637 17-208) above, with F160V counted along it

[16] = target: Recombinant FcγRIIa (R131) with C-terminus Biotin (human) (UniProt P12318); remark: listed apart in the source
[17] = target: Recombinant FcγRIIa (H131) with C-terminus Biotin (human) (UniProt P12318); remark: listed apart in the source
[18] = target: Recombinant FcγRI with C-terminus Biotin (human) (UniProt P12314)
[19] = target: Recombinant FcγRIIIa (F158) with C-terminus Biotin (human) (UniProt P08637); remark: listed apart in the source
[20] = target: Recombinant FcγRIIIa (F158) with C-terminus Biotin (human) (UniProt P08637); remark: listed apart in the source
[21] = target: Recombinant FcγRIIIa (V158) with C-terminus Biotin (human); remark: listed apart in the source
Target sequence in this assay (P08637 17-208 F176V): as the sequence (P08637 17-208) above, with F160V counted along it

[22] = target: Recombinant FcγRIIa (R131) with C-terminus Biotin (human) (UniProt P12318); remark: listed apart in the source
[23] = target: Recombinant FcγRIIa (H131) with C-terminus Biotin (human) (UniProt P12318); remark: listed apart in the source
[24] = target: Recombinant FcγRIIa (H131) with C-terminus Biotin (human) (UniProt P12318); remark: listed apart in the source
[25] = target: Recombinant FcγRI with C-terminus Biotin (human) (UniProt P12314); remark: listed apart in the source
[26] = target: Recombinant FcγRIIIa (F158) with C-terminus Biotin (human) (UniProt P08637); remark: listed apart in the source
[27] = target: Recombinant FcγRIIa (R131) with C-terminus Biotin (human) (UniProt P12318); remark: listed apart in the source
[28] = target: Recombinant FcγRIIIa (V158) with C-terminus Biotin (human); remark: listed apart in the source
Target sequence in this assay (P08637 17-208 F176V): as the sequence (P08637 17-208) above, with F160V counted along it

[29] = target: Recombinant FcγRIIb with C-terminus Biotin (human) (UniProt P31994); remark: listed apart in the source
[30] = target: Recombinant FcγRIIIa (V158) with C-terminus Biotin (human); details: domain or fragment
Target sequence in this assay (P08637 17-208 F176V): as the sequence (P08637 17-208) above, with F160V counted along it

[31] = target: Recombinant FcγRIIIa (F158) with C-terminus Biotin (human) (UniProt P08637); details: domain or fragment
[32] = target: Recombinant FcγRI with C-terminus Biotin (human) (UniProt P12314); details: domain or fragment
[33] = target: Recombinant FcγRIIa (R131) with C-terminus Biotin (human) (UniProt P12318); details: domain or fragment
[34] = target: Recombinant FcγRIIIa (V158) with C-terminus Biotin (human); remark: listed apart in the source
Target sequence in this assay (P08637 17-208 F176V): as the sequence (P08637 17-208) above, with F160V counted along it

[35] = target: Recombinant FcγRIIa (R131) with C-terminus Biotin (human) (UniProt P12318); remark: listed apart in the source
[36] = target: Recombinant FcγRIIa (H131) with C-terminus Biotin (human) (UniProt P12318); remark: listed apart in the source
[37] = target: Recombinant FcγRIIIa (F158) with C-terminus Biotin (human) (UniProt P08637); remark: listed apart in the source
[38] = target: Recombinant FcγRIIa (R131) with C-terminus Biotin (human) (UniProt P12318); remark: listed apart in the source
[39] = target: Recombinant FcγRIIIa (F158) with C-terminus Biotin (human) (UniProt P08637); remark: listed apart in the source
[40] = target: Recombinant FcγRIIIa (V158) with C-terminus Biotin (human); remark: listed apart in the source
[41] = target: Recombinant FcγRIIa (H131) with C-terminus Biotin (human) (UniProt P12318); remark: listed apart in the source

Human IgG3, sequence (P01860 whole entry, looked up): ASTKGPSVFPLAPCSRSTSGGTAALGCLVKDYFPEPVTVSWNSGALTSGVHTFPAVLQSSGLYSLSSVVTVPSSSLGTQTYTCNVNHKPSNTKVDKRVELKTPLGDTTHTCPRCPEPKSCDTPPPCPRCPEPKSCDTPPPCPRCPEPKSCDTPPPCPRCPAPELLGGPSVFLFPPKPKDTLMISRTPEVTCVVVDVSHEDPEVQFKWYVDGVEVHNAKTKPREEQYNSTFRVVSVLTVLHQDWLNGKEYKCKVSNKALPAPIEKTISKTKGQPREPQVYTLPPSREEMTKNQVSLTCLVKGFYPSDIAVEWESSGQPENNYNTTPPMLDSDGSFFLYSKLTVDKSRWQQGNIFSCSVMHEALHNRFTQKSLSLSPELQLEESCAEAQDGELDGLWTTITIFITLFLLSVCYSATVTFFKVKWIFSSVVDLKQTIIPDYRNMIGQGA

Kd [1]: 970 nM
Kd [2]: 17 nM
Kd [3]: 1300 nM
Kd [4]: 1400 nM
Substance: Cetuximab (antibody)

Kd [1]: 410 nM
Kd [2]: 14 nM
Kd [5]: 280 nM
Kd [4]: 400 nM
Substance: Etanercept (Fc fusion)

IC50 [6]: 15.2 nM
IC50 [7]: 918 nM
IC50 [8]: 117 nM
IC50 [9]: 37.3 nM
IC50 [10]: 111 nM
Substance: Flebogamma (from UniProt P01857)

IC50 [16]: 122 nM
IC50 [17]: 67 nM
IC50 [18]: 0.23 nM
IC50 [19]: 65 nM
Substance: Human IgG1 (from UniProt P01857)

IC50 [24]: 4.64 nM
IC50 [25]: 0.11 nM
IC50 [26]: 99.4 nM
IC50 [27]: 25.8 nM
IC50 [28]: 15.7 nM
IC50 [29]: 989 nM
Substance: Human IgG (human polyclonal IgG) (from UniProt P01857)

Kd [1]: 230 nM
Kd [2]: 21 nM
Kd [3]: 350 nM
Kd [5]: 120 nM
Kd [4]: 340 nM
Substance: Infliximab (antibody)

Kd [1]: 640 nM
Kd [2]: 12 nM
Kd [5]: 420 nM
Kd [4]: 800 nM
Substance: NIST mAb standard (antibody)

The remaining lines, values behind:

Substance: Gamunex (from UniProt P01857)
IC50 [11]: 110 nM
IC50 [12]: 63.5 nM
IC50 [13]: 2670 nM
IC50 [14]: 204 nM
IC50 [15]: 17 nM

Substance: Human IgG3 (from UniProt P01860)
IC50 [7]: 819 nM
IC50 [20]: 44.8 nM
IC50 [21]: 12.3 nM
IC50 [22]: 85 nM
IC50 [23]: 40.8 nM

Substance: Human IgG Fc Fragment
IC50 [30]: 81 nM
IC50 [31]: 342 nM
IC50 [32]: 0.56 nM
IC50 [33]: 2280 nM

Substance: NIST mAb standard (from UniProt P01857)
IC50 [34]: 44.5 nM
IC50 [35]: 261 nM
IC50 [36]: 98.1 nM
IC50 [37]: 466 nM

Substance: Octagam (from UniProt P01857)
IC50 [38]: 249 nM
IC50 [7]: 2080 nM
IC50 [39]: 131 nM
IC50 [40]: 18.9 nM
IC50 [41]: 80.9 nM
